In publication doi:10.1101/2024.07.24.604958 (bioRxiv, 2024):
Positions count from the first letter of the chain named. Like-named read-outs stand apart in the source and are kept apart here.

T1: CIB2, wild type, Trx-His6 tag removed (mouse, UniProt Q9Z309 1-187)
T1 sequence: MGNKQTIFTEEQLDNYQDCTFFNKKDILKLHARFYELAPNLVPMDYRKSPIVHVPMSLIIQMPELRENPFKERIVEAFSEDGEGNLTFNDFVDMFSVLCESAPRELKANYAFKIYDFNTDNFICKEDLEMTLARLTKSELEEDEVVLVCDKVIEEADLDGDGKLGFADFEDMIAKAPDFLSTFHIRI

T2: CIB2 (calcium and integrin-binding protein 2), wild type (mouse, UniProt Q9Z309 1-187)
T2 sequence: T1 sequence

T3: CIB2-DD116/120AA (mouse, UniProt Q9Z309 1-187, DD116/120AA | DD116/120AA)
T3 sequence: T1 sequence with D116A, D120A

T4: CIB2-DD157/161AA (mouse, UniProt Q9Z309 1-187, DD157/161AA | DD157/161AA)
T4 sequence: T1 sequence with D157A, D161A

T5: CIB2-E141N (mouse, UniProt Q9Z309 1-187, E141N)
T5 sequence: T1 sequence with E141N

B1: TMC1 cytosolic region 2 (CR2, amino acids 298-352) with MBP tag (domain or fragment, mouse, UniProt Q8R4P5 298-352, looked up)
chain: GGGDDNTFNFSWKVFCSWDYLIGNPETADNKFNSITMNFKEAIIEERAAQVEENI
B2: TMC1 CR2 (amino acids 298-352) as used in SEC-MALS (domain or fragment, mouse, UniProt Q8R4P5 298-352, looked up)
chain: B1 chain

Experiments:
[1] = target: T1, CIB2, wild type, Trx-His6 tag removed; assay: SEC-MALS
[2] = target: T2, CIB2 (calcium and integrin-binding …); assay: ITC
[3] = target: T2, CIB2 (calcium and integrin-binding …); assay: ITC; remark: listed apart in the source
[4] = target: T1, CIB2, wild type, Trx-His6 tag removed; assay: SEC-MALS; remark: listed apart in the source
CIB2-DD116/120AA = target: T3, CIB2-DD116/120AA; assay: ITC
CIB2-DD157/161AA = target: T4, CIB2-DD157/161AA; assay: ITC
CIB2-E141N = target: T5, CIB2-E141N; assay: crystal structure

Row | Binder | Kd [2] | Kd [3] | stoichiometry N [4] | further results
1 | KGQKAANLDLKKKMKQQALENKMRNKKMAAARAAAAAGGQ (domain or fragment, mouse, UniProt Q8R4P5 718-757, looked up) [TMC1 CR3 (amino acids 718-757) as used in SEC-MALS] |  |  |  | stoichiometry N [1]: 1
2 | KGQKAANLDLKKKMKQQALENKMRNKKMAAARAAAAAGGQ (domain or fragment, mouse, UniProt Q8R4P5 718-757, looked up) [TMC1 cytosolic region 3 (CR3, amino acids 718-757)] | ~43400 nM |  |  | 
3 | B1 | ~10800 nM | ~480 nM |  | 
4 | B2 |  |  | 1 | 
5 | EELERLKALLDENRQMIATVKCKPWKMEKKIEVLKEAKKFVSENEGALGK (domain or fragment, mouse, UniProt Q8R4P5 81-130, looked up) [TMC1 cytosolic region 1 (CR1, amino acids 81-130)] | ~870 nM | ~74 nM |  | fold decrease of binding against CIB2 WT (CIB2-DD116/120AA): ~150 fold; fold decrease of binding against CIB2 WT (CIB2-DD157/161AA): ~50 fold
6 | EELERLKALLDENRQMIATVKCKPWKMEKKIEVLKEAKKFVSENEGALGK (domain or fragment, mouse, UniProt Q8R4P5 81-130, looked up) [TMC1 CR1 (amino acids 81-130), Trx-His6 tag removed] |  |  | 1 | binding result (CIB2-E141N): binds
